# Laboratory results taken from PMC8102066, “Differences in interactions between transmembrane domains tune the activation of metabotropic glutamate receptors” (eLife, 2021).
# Tests used:
# HA-SNAP-mGluR3-TMD (rat) = assay: single-molecule pulldown (SiMPull) with photobleaching step counting; HEK 293T cells surface-labelled with BG-LD555, lysed in 1.2% IGEPAL, diluted in 0.1% IGEPAL buffer; HA-SNAP constructs captured by biotinylated anti-HA antibody on NeutrAvidin/PEG slides; TIRF; percent dimerization = two-step bleaching min-max normalised (5% background, 55% for full-length mGluR2); in some experiments saturating ligands (TASP, MNI 137, glutamate, LY34) kept from cell dissociation on
# SNAP-mGluR3-TMD-S686A = assay: SiMPull; settings: SNAP-tagged constructs labeled with LD555; 6 movies; parent: est. 46; read off a plot
# SNAP-mGluR3-TMD-F690A = assay: SiMPull; settings: SNAP-tagged constructs labeled with LD555; 6 movies; parent: est. 46; read off a plot
# SNAP-mGluR3-TMD-G694A = assay: SiMPull; settings: SNAP-tagged constructs labeled with LD555; 6 movies; parent: est. 46; read off a plot
# HA-SNAP-mGluR2-TMD (rat) = assay: single-molecule pulldown (SiMPull) with photobleaching step counting; HEK 293T cells surface-labelled with BG-LD555, lysed in 1.2% IGEPAL, diluted in 0.1% IGEPAL buffer; HA-SNAP constructs captured by biotinylated anti-HA antibody on NeutrAvidin/PEG slides; TIRF; percent dimerization = two-step bleaching min-max normalised (5% background, 55% for full-length mGluR2); in some experiments saturating ligands (TASP, MNI 137, glutamate, LY34) kept from cell dissociation on
# [1] = molecular target: SNAP-mGluR2-TMD-P778A-I779A; assay: SiMPull; settings: SNAP-tagged constructs labeled with LD555; 6 movies; parent: est. 80; read off a plot
# SNAP-mGluR2-TMD-3xTM4_W = assay: SiMPull; settings: SNAP-tagged constructs labeled with LD555; 9 movies; parent: est. 83; read off a plot
# SNAP-mGluR2-TMD-I779A [2] = assay: SiMPull; settings: SNAP-tagged constructs labeled with LD555; 6 movies; parent: est. 80; read off a plot
# SNAP-mGluR2-TMD-I779A [3] = assay: SiMPull; settings: SNAP-tagged constructs labeled with LD555; 6 movies; parent: est. 80; read off a plot; remark: listed apart in the source
# SNAP-mGluR3-TMD-I788A = assay: SiMPull; settings: SNAP-tagged constructs labeled with LD555; 6 movies; parent: est. 50; read off a plot
# SNAP-mGluR2-TMD-I779W = assay: SiMPull; settings: SNAP-tagged constructs labeled with LD555; 6 movies; parent: est. 80; read off a plot
# SNAP-mGluR2-TMD-P778A = assay: SiMPull; settings: SNAP-tagged constructs labeled with LD555; 6 movies; parent: est. 80; read off a plot
# SNAP-mGluR3-TMD-3xTM4_W = assay: SiMPull; settings: SNAP-tagged constructs labeled with LD555; 6 movies; parent: est. 46; read off a plot
# Sequence of HA-SNAP-mGluR3-TMD (domain or fragment) (P31422 23-879): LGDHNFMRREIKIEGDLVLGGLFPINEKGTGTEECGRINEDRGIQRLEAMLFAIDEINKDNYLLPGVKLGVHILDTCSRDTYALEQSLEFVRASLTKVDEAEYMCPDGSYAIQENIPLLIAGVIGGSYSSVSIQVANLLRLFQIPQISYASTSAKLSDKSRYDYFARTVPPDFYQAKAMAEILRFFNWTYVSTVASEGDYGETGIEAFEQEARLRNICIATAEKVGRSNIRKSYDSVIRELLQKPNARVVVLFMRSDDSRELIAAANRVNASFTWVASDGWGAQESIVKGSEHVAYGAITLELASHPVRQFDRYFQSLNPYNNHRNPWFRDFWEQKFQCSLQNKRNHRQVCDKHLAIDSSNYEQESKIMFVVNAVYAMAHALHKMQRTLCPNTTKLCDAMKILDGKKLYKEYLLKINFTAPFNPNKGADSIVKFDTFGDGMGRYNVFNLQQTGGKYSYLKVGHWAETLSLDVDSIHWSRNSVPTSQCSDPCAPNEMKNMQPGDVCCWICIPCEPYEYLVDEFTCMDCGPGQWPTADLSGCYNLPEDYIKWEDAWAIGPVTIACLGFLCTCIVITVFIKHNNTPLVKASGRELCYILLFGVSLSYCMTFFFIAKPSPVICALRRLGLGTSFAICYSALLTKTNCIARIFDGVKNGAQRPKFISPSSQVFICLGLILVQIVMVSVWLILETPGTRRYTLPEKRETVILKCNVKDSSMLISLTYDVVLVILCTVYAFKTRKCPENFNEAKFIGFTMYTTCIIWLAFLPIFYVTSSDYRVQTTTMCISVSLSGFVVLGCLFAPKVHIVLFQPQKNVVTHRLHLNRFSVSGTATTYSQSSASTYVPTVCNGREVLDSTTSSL
# Sequence of HA-SNAP-mGluR2-TMD (domain or fragment) (P31421 19-872): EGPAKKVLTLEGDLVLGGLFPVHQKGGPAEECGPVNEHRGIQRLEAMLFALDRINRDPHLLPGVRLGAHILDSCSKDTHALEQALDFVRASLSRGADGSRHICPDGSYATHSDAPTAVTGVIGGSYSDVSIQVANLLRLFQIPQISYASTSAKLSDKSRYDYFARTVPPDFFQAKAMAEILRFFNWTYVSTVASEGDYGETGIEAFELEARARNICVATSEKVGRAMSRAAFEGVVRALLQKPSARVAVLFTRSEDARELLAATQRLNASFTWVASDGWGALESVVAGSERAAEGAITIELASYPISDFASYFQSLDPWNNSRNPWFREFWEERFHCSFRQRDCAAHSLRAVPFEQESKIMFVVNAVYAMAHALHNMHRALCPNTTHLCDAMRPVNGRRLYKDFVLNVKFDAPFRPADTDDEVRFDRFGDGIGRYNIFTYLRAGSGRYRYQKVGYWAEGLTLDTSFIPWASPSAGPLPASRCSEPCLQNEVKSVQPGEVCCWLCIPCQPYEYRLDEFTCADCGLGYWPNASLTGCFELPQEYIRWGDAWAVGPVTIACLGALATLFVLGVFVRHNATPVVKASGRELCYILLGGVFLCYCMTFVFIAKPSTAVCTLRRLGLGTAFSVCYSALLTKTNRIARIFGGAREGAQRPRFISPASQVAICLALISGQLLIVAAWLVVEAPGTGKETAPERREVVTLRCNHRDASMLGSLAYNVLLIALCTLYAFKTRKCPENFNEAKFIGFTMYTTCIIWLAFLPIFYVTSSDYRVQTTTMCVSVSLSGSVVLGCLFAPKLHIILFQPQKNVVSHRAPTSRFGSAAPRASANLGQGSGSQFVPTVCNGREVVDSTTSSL
substance,measurement,setting,value
HA-SNAP-mGluR3-TMD (domain or fragment),percent of spots bleaching in >3 steps,HA-SNAP-mGluR3-TMD (rat),2.9%
same,percent of spots bleaching in one step,HA-SNAP-mGluR3-TMD (rat),69.1%
same,percent of spots bleaching in two steps,HA-SNAP-mGluR3-TMD (rat),27.9%
HA-SNAP-mGluR3-TMD S686A,other: percent dimerization,SNAP-mGluR3-TMD-S686A,72%
HA-SNAP-mGluR3-TMD F690A,other: percent dimerization,SNAP-mGluR3-TMD-F690A,64%
HA-SNAP-mGluR3-TMD G694A,other: percent dimerization,SNAP-mGluR3-TMD-G694A,62%
HA-SNAP-mGluR2-TMD (domain or fragment),percent of spots bleaching in >3 steps,HA-SNAP-mGluR2-TMD (rat),4.5%
same,percent of spots bleaching in one step,HA-SNAP-mGluR2-TMD (rat),54.1%
same,percent of spots bleaching in two steps,HA-SNAP-mGluR2-TMD (rat),41.4%
HA-SNAP-mGluR2-TMD P778A; I779A,other: percent dimerization,[1],57%
HA-SNAP-mGluR2-TMD A677W; A681W; A685W,other: percent dimerization,SNAP-mGluR2-TMD-3xTM4_W,39%
HA-SNAP-mGluR2-TMD I779A,other: percent dimerization,SNAP-mGluR2-TMD-I779A [2],57%
same,other: percent dimerization,SNAP-mGluR2-TMD-I779A [3],57%
HA-SNAP-mGluR3-TMD I788A,other: percent dimerization,SNAP-mGluR3-TMD-I788A,38%
HA-SNAP-mGluR2-TMD I779W,other: percent dimerization,SNAP-mGluR2-TMD-I779W,61%
HA-SNAP-mGluR2-TMD P778A,other: percent dimerization,SNAP-mGluR2-TMD-P778A,64%
HA-SNAP-mGluR3-TMD S686W; F690W; G684W,other: percent dimerization,SNAP-mGluR3-TMD-3xTM4_W,45%
